Reference: US20190338048A1
Where “and” joins values, the source holds several entries; their conditions need not be identical. Equal values may be shown once. Read-outs that look alike come from different tables or passages of the source. Values belong to the substance of their own block, whether it stands above or below them.

What was measured:
[1] = biological target: CR8071 lambda light chain L1 with Q38E (SMCA design 34); experiment: SMCA LC-MS
[2] = biological target: CR8071 lambda light chain L1 with Q38E (SMCA design 34); experiment: SMCA: four chains co-expressed, protein A, LC-MS
[3] = biological target: SGN-CD19a kappa light chain L2, design 2816 (Q124R_Q160K_T178R); experiment: SMCA, System C
[4] = biological target: SGN-CD19a kappa light chain L2, design 2816 (Q124R_Q160K_T178R); experiment: SMCA, System C, LC-MS
[5] = biological target: SGN-CD19a kappa light chain L2, design 2816 (Q124R_Q160K_T178R); experiment: SMCA, System B, LC-MS
[6] = biological target: SGN-CD19a kappa light chain L2, design 2816 (Q124R_Q160K_T178R); experiment: SMCA, System B
[7] = biological target: SGN-CD19a kappa light chain L2 S121K_Q124R_T178R (design 3967, Systems B and C); experiment: SMCA: H1, L1, H2, L2 co-expressed, protein A, LC-MS
[8] = biological target: SGN-CD19a kappa light chain L2 S121K_Q124R_T178R (design 3967, Systems B and C); experiment: as above; remark: listed apart in the source
[9] = biological target: SGN-CD19a kappa light chain L2 S121K_Q124R_T178R (design 3967, Systems B and C); experiment: as above; remark: listed apart in the source
[10] = biological target: SGN-CD19a kappa light chain L2, design 2827 (Q124K_T178R); experiment: SMCA, System C
[11] = biological target: SGN-CD19a kappa light chain L2, design 2827 (Q124K_T178R); experiment: SMCA, System C, LC-MS
[12] = biological target: SGN-CD19a kappa light chain L2, design 2827 (Q124K_T178R); experiment: SMCA, System B, LC-MS
[13] = biological target: SGN-CD19a kappa light chain L2, design 2827 (Q124K_T178R); experiment: SMCA, System B
[14] = biological target: SGN-CD19a kappa light chain L2, design 2188 (V133G_S176D); experiment: SMCA, System C
[15] = biological target: SGN-CD19a kappa light chain L2, design 2188 (V133G_S176D); experiment: SMCA, System C, LC-MS
[16] = biological target: SGN-CD19a kappa light chain L2 with Q124E_Q160E_T180E (SMCA design 2826); experiment: SMCA LC-MS
[17] = biological target: SGN-CD19a kappa light chain L2 with Q124E_Q160E_T180E (SMCA design 2826); experiment: SMCA LC-MS; remark: listed apart in the source
[18] = biological target: SGN-CD19a kappa light chain L2 with Q124E_Q160E_T180E (SMCA design 2826); experiment: SMCA: four chains co-expressed, protein A, LC-MS
[19] = biological target: SGN-CD19a kappa light chain L2 with Q124E_Q160E_T180E (SMCA design 2826); experiment: SMCA: four chains co-expressed, protein A, LC-MS; remark: listed apart in the source
[20] = biological target: Design 4010 L2: SGN-CD19a kappa light chain S131R_V133G_L135W_S176R; experiment: SMCA, LC-MS
[21] = biological target: Design 2994 L2: SGN-CD19a kappa light chain Q124E_V133D; experiment: SMCA: H1, L1, H2, L2 co-expressed in CHO-3E7, protein A, LC-MS
[22] = biological target: Design 2994 L2: SGN-CD19a kappa light chain Q124E_V133D; experiment: SMCA, LC-MS
[23] = biological target: CR8071 lambda light chain L1 with E124R (SMCA design 2826); experiment: SMCA LC-MS
[24] = biological target: CR8071 lambda light chain L1 with E124R (SMCA design 2826); experiment: SMCA: four chains co-expressed, protein A, LC-MS
[25] = biological target: Design 4040 L2: SGN-CD19a kappa light chain P44F_Q124K_T178R; experiment: SMCA: H1, L1, H2, L2 co-expressed in CHO-3E7, protein A, LC-MS
[26] = biological target: Design 4040 L2: SGN-CD19a kappa light chain P44F_Q124K_T178R; experiment: SMCA, LC-MS
[27] = biological target: Design 4040 L2: SGN-CD19a kappa light chain P44F_Q124K_T178R; experiment: SMCA, LC-MS; remark: listed apart in the source
[28] = biological target: SGN-CD19a kappa light chain L2 with V133G_S176D (SMCA design 2188); experiment: SMCA LC-MS
[29] = biological target: SGN-CD19a kappa light chain L2 with V133G_S176D (SMCA design 2188); experiment: SMCA: four chains co-expressed, protein A, LC-MS
[30] = biological target: CR8071 lambda light chain L1, design 2188 (V133G_S176R); experiment: SMCA, System C
[31] = biological target: CR8071 lambda light chain L1, design 2188 (V133G_S176R); experiment: SMCA, System C, LC-MS
[32] = biological target: Design 4320 L2: SGN-CD19a kappa light chain Q124K_L135A_T178R; experiment: SMCA, LC-MS
[33] = biological target: Design 3997 L2: SGN-CD19a kappa light chain S121K_V133I_S176D_T178E; experiment: SMCA: H1, L1, H2, L2 co-expressed in CHO-3E7, protein A, LC-MS
[34] = biological target: Design 3997 L2: SGN-CD19a kappa light chain S121K_V133I_S176D_T178E; experiment: SMCA, LC-MS
[35] = biological target: Design 4320 L1: CR8071 lambda light chain T116F_K129T_V133D_S176F; experiment: SMCA: H1, L1, H2, L2 co-expressed in CHO-3E7, protein A, LC-MS
[36] = biological target: Design 4320 L1: CR8071 lambda light chain T116F_K129T_V133D_S176F; experiment: SMCA, LC-MS
[37] = biological target: Design 4040 L1: CR8071 lambda light chain K129T_S180E; experiment: SMCA: H1, L1, H2, L2 co-expressed in CHO-3E7, protein A, LC-MS
[38] = biological target: Design 4040 L1: CR8071 lambda light chain K129T_S180E; experiment: SMCA, LC-MS
[39] = biological target: Design 4008 L2: SGN-CD19a kappa light chain Q124R_L135W_T178R; experiment: SMCA, LC-MS
[40] = biological target: Designs 4008 and 4010 L1: CR8071 lambda light chain K129T_V133D; experiment: SMCA: H1, L1, H2, L2 co-expressed in CHO-3E7, protein A, LC-MS
[41] = biological target: Designs 4008 and 4010 L1: CR8071 lambda light chain K129T_V133D; experiment: SMCA, LC-MS
[42] = biological target: Design 2994 L1: CR8071 lambda light chain E124Q_T131K; experiment: SMCA: H1, L1, H2, L2 co-expressed in CHO-3E7, protein A, LC-MS
[43] = biological target: Design 2994 L1: CR8071 lambda light chain E124Q_T131K; experiment: SMCA, LC-MS

% H2L2 Pairing [7]: 98.6%
% H2L2 Pairing [8]: 100%
Change in % H2L2 Pairing with respect to wild type [8]: 28.7%
Change in % H2L2 Pairing with respect to wild type [9]: 44.4%
Substance: SGN-CD19a heavy chain H2 L143E_K145T_Q179E_K228D (design 3967, Systems B and C)

% H2L2 Pairing [14]: 99.5%
Change in % H2L2 Pairing with respect to wild type [15]: 19.9%
Substance: SGN-CD19a heavy chain H2, design 2188 (L124R)

Change in % H2L2 Pairing with respect to wild type [20]: 33.9% and 38.7%
Substance: Design 4010 H2: SGN-CD19a heavy chain L124E_K145T_Q179E

% H2L2 Pairing [25]: 75.8% and 98.6%
Change in % H2L2 Pairing with respect to wild type [26]: 27.3%
Change in % H2L2 Pairing with respect to wild type [27]: 21.6%
Substance: Design 4040 H2: SGN-CD19a heavy chain L45P_L143E_K145T_Q179E

Change in % H2L2 Pairing with respect to wild type [28]: 38.7%
% H2L2 Pairing [29]: 92.9%
Substance: SGN-CD19a full-length heavy chain H2 with L124R (SMCA design 2188)

% H1L1 Pairing [35]: 96.6%
Change in % H1L1 Pairing with respect to wild type [36]: 14.3%
Substance: Design 4320 H1: CR8071 heavy chain L143K_F174G

% H1L1 Pairing [37]: 98.7%
Change in % H1L1 Pairing with respect to wild type [38]: 30.6%
Substance: Design 4040 H1: CR8071 heavy chain S186R

% H1L1 Pairing [40]: 99.6% and 99.3%
Change in % H1L1 Pairing with respect to wild type [41]: 17.3% and 17%
Substance: Designs 4008 and 4010 H1: CR8071 heavy chain A139W_L143K

Second part, the substance before the results:

Substance: CR8071 full-length heavy chain H1 with Q39R (SMCA design 34)
Change in % H1L1 Pairing with respect to wild type [1]: 24.5%
% H1L1 Pairing [2]: 92.6%

Substance: SGN-CD19a heavy chain H2, design 2816 (L143E_K145T)
% H2L2 Pairing [3]: 79.7%
Change in % H2L2 Pairing with respect to wild type [4]: 19.8%
Change in % H2L2 Pairing with respect to wild type [5]: -12.5%
% H2L2 Pairing [6]: 25.1%

Substance: SGN-CD19a heavy chain H2, design 2827 (L143E_K145T_Q179E)
% H2L2 Pairing [10]: 85%
Change in % H2L2 Pairing with respect to wild type [11]: 25.1%
Change in % H2L2 Pairing with respect to wild type [12]: -15.3%
% H2L2 Pairing [13]: 22.3%

Substance: SGN-CD19a full-length heavy chain H2 with Q179K (SMCA design 2826)
Change in % H2L2 Pairing with respect to wild type [16]: 26.7%
Change in % H2L2 Pairing with respect to wild type [17]: 35.5%
% H2L2 Pairing [18]: 89.7%
% H2L2 Pairing [19]: 98%

Substance: Design 2994 H2: SGN-CD19a heavy chain L143K
% H2L2 Pairing [21]: 99.2% and 99.7%
Change in % H2L2 Pairing with respect to wild type [22]: 45% and 20.1%

Substance: CR8071 full-length heavy chain H1 with L143E_K145T (SMCA design 2826)
Change in % H1L1 Pairing with respect to wild type [23]: -40.3%
% H1L1 Pairing [24]: 27.8%

Substance: CR8071 heavy chain H1, design 2188 (L124E)
% H1L1 Pairing [30]: 24.9%
Change in % H1L1 Pairing with respect to wild type [31]: -23.5%

Substance: Design 4320 H2: SGN-CD19a heavy chain L143E_K145T_Q179E_V190F
Change in % H2L2 Pairing with respect to wild type [32]: 17.9% and 21.5%

Substance: Design 3997 H2: SGN-CD19a heavy chain S188K_K228D
% H2L2 Pairing [33]: 99.9%
Change in % H2L2 Pairing with respect to wild type [34]: 28.6%

Substance: Design 4008 H2: SGN-CD19a heavy chain L143E_K145T_Q179E
Change in % H2L2 Pairing with respect to wild type [39]: 33.3% and 38.4%

Substance: Design 2994 H1: CR8071 heavy chain L143E_K145T_Q179E
% H1L1 Pairing [42]: 26.3%
Change in % H1L1 Pairing with respect to wild type [43]: -22.1%
